This is an account of results in patent US20210380702A1 (Regeneron, published 2021).

The term IC50 denotes the concentration that gives 50% inhibition. What is called Kd is a measure of binding affinity in units of concentration. For orientation: koff means a measure of how fast the partners let go of each other. For orientation: kon means a measure of how fast the partners come together.

Several values for one entry are separate records, joined by “and”; a condition that tells them apart may be missing. Equal entries are not always repeated.

The target in assay [1] is T1, full length human PD-L1 (amino acids 1 to 290 of NP_054862.1) on transfected cells (human, UniProt Q9NZQ7 19-290).
T1 construct: also called HEK293/hPD-L1; Raji/hPD-L1
T1 sequence (Q9NZQ7 19-290 limits assumed): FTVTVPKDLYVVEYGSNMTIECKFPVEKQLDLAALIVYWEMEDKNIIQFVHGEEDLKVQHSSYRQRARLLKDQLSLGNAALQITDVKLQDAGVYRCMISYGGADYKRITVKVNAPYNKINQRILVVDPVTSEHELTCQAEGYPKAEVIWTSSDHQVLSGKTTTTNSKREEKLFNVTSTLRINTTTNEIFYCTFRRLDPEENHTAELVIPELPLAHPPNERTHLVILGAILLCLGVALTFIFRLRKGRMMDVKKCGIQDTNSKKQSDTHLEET
Description: FACS, 100 nM antibody. The method, then:
(§1) The binding of anti-PD-L1 antibodies to a human embryonic kidney cell line (HEK293; ATCC, #CRL-1573) stably transfected with full length human PD-L1 (amino acids 1 to 290 of accession number NP_054862.1) (HEK293/hPD-L1) was determined by FACS.
(§2) For the assay, adherent cells were detached using enzyme-free dissociation buffer and blocked with complete medium. Cells were centrifuged and resuspended at a concentration of 2.8×10\hat{ }6 cells/mL in cold PBS containing 2% FBS. […] Cells were washed with D-PBS containing 2% FBS to remove unbound secondary detection reagents and fluorescence measurements were acquired using a HyperCyte (IntelliCyt, Inc.) flow cytometer. Data was analyzed using HyperCyte software.
(In general: Flow cytometry measures light scatter and fluorescence of single cells or particles in a stream.)

Assay [2] addresses T2, recombinant human PD-L1 (amino acids 19-239 of NP_054862.1) expressed with a C-terminal mouse IgG2a Fc tag (human).
T2 construct: called dimeric; also called hPD-L1-mFc
Nature of the assay: competition ELISA: 8 nM hPD-L1-mFc binding to coated hB7-1-hFc-6His. The method, then: (§3) The ability of monoclonal anti-PD-L1 antibodies to block human PD-L1 from binding to its binding partners, the human PD-1 and the human B7-1 receptors, was measured using two competition sandwich ELISA formats.
(§4) A dimeric human PD-1 protein comprised of a portion of the extracellular domain (amino acids 25-170 of accession number NP_005009.2 with a C93S change) that was expressed with a C-terminal hFc tag (hPD-1-hFc; SEQ ID: 350) and a dimeric human B7-1 protein comprised of a portion of the extracellular domain expressed with C-terminal hFc tag and hexahistidine tags (hB7-1-hFc-6His; R&D Systems, #140-B1) were separately coated at 2 μg/mL on a 96-well microtiter plate in a PBS buffer overnight at 4° C. […] These antibody-protein complexes were then incubated for 1 hour at room temperature (RT). […] The complexes were allowed to bind to the coated plates for 1 hour at RT. […] Samples were developed with a TMB solution (BD Biosciences, #51-2606KC and #51-2607KC) to produce a colorimetric reaction and neutralized with 1M sulfuric acid before measuring absorbance at 450 nm on a Victor X5 plate reader. Data analysis used a sigmoidal dose-response model within Prism™ software.
A general note: An ELISA detects its analyte on a solid surface through an enzyme-linked reagent.

Assay [3] addresses T1, full length human PD-L1 (amino acids 1 …). Description: cell-based or functional assay.
The target in assay [4] is T2, recombinant human PD-L1 (amino acids …). Description: competition ELISA: 0.5 nM hPD-L1-mFc binding to coated hPD-1-hFc. The method, then: as §3, §4
Assay [5] addresses T3, recombinant cynomolgus monkey PD-L1 expressed with a C-terminal mouse IgG2a Fc tag (cynomolgus monkey).
T3 construct: also called MfPD-L1-mFc; monkey PD-L1-mFc
Description: SPR (Biacore), mAb captured, 37C.

The target of assay [6] is T4, recombinant human PD-L1 (amino acids 19-239 of NP_054862.1) expressed with a C-terminal human IgG1 Fc tag (human).
T4 construct: also called hPD-L1-hFc
T4 sequence (chain, as listed by the source limits assumed): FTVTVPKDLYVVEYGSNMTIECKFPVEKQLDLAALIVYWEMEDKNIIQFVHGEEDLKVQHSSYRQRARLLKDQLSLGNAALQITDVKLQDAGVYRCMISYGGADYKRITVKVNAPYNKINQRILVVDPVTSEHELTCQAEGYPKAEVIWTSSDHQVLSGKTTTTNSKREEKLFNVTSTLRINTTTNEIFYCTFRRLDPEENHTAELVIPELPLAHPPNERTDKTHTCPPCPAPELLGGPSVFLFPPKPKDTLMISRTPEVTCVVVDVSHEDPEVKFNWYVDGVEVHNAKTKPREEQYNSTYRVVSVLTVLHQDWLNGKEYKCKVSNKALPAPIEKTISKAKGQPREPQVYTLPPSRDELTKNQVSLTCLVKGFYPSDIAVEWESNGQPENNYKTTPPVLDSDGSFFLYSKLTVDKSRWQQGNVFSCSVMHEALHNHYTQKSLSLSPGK
Nature of the assay: SPR (Biacore 3000): 100 nM hPD-L1-hFc + 500 nM mAb on captured hPD-1-mFc, 25C. The method, then: Next, inhibition studies for anti-PD-L1 monoclonal antibodies expressed with human Fc were performed on Biacore 3000 instrument. […] The entire experiment was performed at 25° C. in HBST running buffer (0.01 M HEPES pH7.4, 0.15M NaCl, 3 mM EDTA, 0.05% v/v Surfactant P20). The real-time binding responses were monitored during the entire course of the experiment and the binding response at the end of every step was recorded.
A general note: Surface plasmon resonance follows binding to a sensor surface in real time, without labels.

Assay [7] addresses T1, full length human PD-L1 (amino acids 1 …). Nature of the assay: FACS, 100 nM antibody, HEK293/hPD-L1 cells. The method, then:
as §1, §2

T3 sequence (chain, as listed by the source limits assumed): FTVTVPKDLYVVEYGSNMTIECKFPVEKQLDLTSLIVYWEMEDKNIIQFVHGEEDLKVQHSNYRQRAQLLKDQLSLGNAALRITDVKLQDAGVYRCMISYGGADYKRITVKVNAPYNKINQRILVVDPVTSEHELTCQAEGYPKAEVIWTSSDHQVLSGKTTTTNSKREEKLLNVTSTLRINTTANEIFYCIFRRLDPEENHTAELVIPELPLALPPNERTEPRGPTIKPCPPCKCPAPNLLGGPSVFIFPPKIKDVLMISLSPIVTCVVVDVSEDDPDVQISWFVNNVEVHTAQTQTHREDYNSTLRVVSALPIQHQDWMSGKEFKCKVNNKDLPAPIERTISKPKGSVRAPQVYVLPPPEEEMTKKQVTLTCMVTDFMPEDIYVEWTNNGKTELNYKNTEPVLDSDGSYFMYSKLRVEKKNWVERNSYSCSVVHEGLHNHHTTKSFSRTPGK
T2 sequence (chain, as listed by the source limits assumed): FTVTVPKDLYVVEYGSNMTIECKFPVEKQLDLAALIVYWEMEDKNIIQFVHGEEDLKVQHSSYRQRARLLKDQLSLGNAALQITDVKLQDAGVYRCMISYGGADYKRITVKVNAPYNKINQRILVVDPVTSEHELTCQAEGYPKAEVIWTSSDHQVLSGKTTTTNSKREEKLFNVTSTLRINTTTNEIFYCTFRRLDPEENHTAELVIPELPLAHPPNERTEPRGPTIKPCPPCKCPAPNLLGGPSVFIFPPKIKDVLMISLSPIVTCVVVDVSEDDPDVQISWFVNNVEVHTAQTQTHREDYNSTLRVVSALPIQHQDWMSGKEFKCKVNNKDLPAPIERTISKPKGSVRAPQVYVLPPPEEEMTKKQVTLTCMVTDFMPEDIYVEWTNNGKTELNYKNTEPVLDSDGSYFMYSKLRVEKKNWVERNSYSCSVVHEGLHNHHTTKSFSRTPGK

B1: H1H9396P2 (antibody, V domains shown)
VH: QVQLVQSGAEVEKPGASVKVSCKASGYIFTHYGISWVRQAPGQGLEWVGWISPYNGYTDYAQKLQGRVTLTTDTSTTTAYMELRNLRSDDTAMYYCSRGRGPYWSFDLWGRGTLVTVSS
VL: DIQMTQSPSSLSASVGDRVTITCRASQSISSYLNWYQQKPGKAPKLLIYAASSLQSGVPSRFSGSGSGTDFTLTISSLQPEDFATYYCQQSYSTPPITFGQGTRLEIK
notes: human IgG1 Fc (H1H prefix)
As to B1, the “Ratio of HEK293/hPD-L1 to HEK293 parental cells” value (“Ratio of HEK293/hPD-L1” for short) in assay [1] came out at 97. Also, the “% maximum blocking” value in assay [2] turned out to be 8%. In addition, the “Emax mean [%] @ 100 nM” value in assay [3] turned out to be 103%. In addition, in assay [4], the “% maximum blocking” value was 59% and the IC50 is less than 0.25 nM. In assay [5], the Kd worked out at 0.319 nM, the off-rate constant (koff) is 0.000502 s⁻¹, the kon turned out to be 1.57e+06 M⁻¹ s⁻¹ and the t1/2 was found to be 23 min. Also, the “% Blocking” value in assay [6] was -193%. In assay [7], this molecule gave an MFI of 228000 MFI.

B2: H1H9382P2 (antibody, V domains shown)
VH: EVQLVESGGGLVQPGGSLRLSCAASGFTVGTNFMNWVRQAPGKGLEWVSAIYSGGTANYADSVKGRFTISRDTSRNTLYLQMNSLRTEDTAVYYCARGGGMDVWGQGTTVTVSS
VL: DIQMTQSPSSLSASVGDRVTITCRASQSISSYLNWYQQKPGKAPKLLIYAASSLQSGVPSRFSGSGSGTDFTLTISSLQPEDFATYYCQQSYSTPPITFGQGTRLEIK
notes: human IgG1 Fc (H1H prefix)
Turning to B2, the “Ratio of HEK293/hPD-L1” value in assay [1] stood at 140. Moreover, the “% maximum blocking” value in assay [2] was -30%. For the same molecule, the “Emax mean [%] @ 100 nM” value in assay [3] was determined as 86.5%. In assay [4], the “% maximum blocking” value was 39% and the IC50 was less than 0.25 nM. In assay [5], the dissociation constant Kd is 0.825 nM, the koff was 0.000235 s⁻¹, the kon was found to be 284000 M⁻¹ s⁻¹ and the t1/2 was determined as 49 min. Besides, the “% Blocking” value in assay [6] is -448%. For the same molecule, the MFI in assay [7] was 206000 MFI.

B3: H1H9387P2 (antibody, V domains shown)
VH: QVQLVQSGAEVKKPGSSVKVSCKASGGTFNTYVLSWVRQAPGQGLEWMGEIIPILGAANYAQNFQGRVTFTTDESTNTAYMDLSSLRSEDTAVYYCARDRTSGGFDPWGQGTLVTVSS
VL: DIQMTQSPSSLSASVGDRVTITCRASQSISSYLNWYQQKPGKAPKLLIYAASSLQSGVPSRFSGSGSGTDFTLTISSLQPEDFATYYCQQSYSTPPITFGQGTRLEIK
notes: human IgG1 Fc (H1H prefix)
Consider B3, for which, in assay [1], the “Ratio of HEK293/hPD-L1” value came to 263. Also, in assay [2], the “% maximum blocking” value worked out at 100% and the IC50 is less than 4 nM. In assay [3], the “Concentration [M] of Antibody at 125% activation” value amounted to 1.86e-11 M and the “Emax mean [%] @ 100 nM” value amounted to 141%. Besides, in assay [4], the “% maximum blocking” value is 100% and the IC50 is less than 0.25 nM. For the same molecule, in assay [5], the equilibrium dissociation constant (Kd) was 0.139 nM and 0.161 nM; the off-rate constant (koff) was 0.000474 s⁻¹ and 0.000465 s⁻¹; the association rate constant (kon) was 3.41e+06 M⁻¹ s⁻¹ and 2.9e+06 M⁻¹ s⁻¹; the t1/2 was 24 min and 25 min. Besides, the “% Blocking” value in assay [6] is 91%. This molecule came in with an MFI in assay [7] of 324000 MFI.
